The values that follow come from patent US20200095589, “ENGINEERED DCAS9 WITH REDUCED TOXICITY AND ITS USE IN GENETIC CIRCUITS” (Massachusetts Institute of Technology, published 2020).

The data set concerns the target dCas9*_HNH-L88 (ZFP fusion) (Streptococcus pyogenes / synthetic). The data set can be described thus: cell_activity; E. coli; maximum reached at optimal 6 bp spacer; about a third of unmodified dCas9. Particulars: dCas9(R1335K), HNH deleted, 88 aa linker, C-terminal Zif268TS3. The method, then: A reporter system was developed to evaluate the impact of these modifications on the ability for dCas9 to repress the targeted promoter (FIGS. 13A-13F). The expression of the sgRNA and dCas9 are controlled using IPTG- and aTc-inducible promoters, respectively. All of these components are integrated into a single p15A plasmid backbone. The fold-repression is measured as the fluorescence from the output promoter in the absence of sgRNA inducer (0 mM IPTG), divided by the fluorescence when the sgRNA is expressed (1 mM IPTG). When the R1335K mutation is made (dCas9*), this completely abolishes repression as expected (FIG. 1C).
The ability for a zinc finger protein (ZFP) to recover nuclease activity was first tested. To this end, a variant of dCas9* described previously was built, where Zif268^TS3 is fused to the C-terminal end of dCas9* via a 58 amino acid linker (Bolukbasi M. F., et al., Nat. Methods, 2015 December; 12(12): 1150-56). The corresponding 12 bp operator recognized by Zif268^Ts3 was then placed upstream of the promoter, separated from the −35 position by a spacer (all promoter variants described are provided in TABLE 3). The orientation of the operator (forward and reverse) was initially tested with the forward yielding higher repression as previously observed (Bolukbasi M. F., et al., Nat. Methods, 2015 December; 12(12): 1150-56). […]

B1: sgRNA9 ; pZFP_S6 promoter (ssRNA ; dsDNA)
RNA: AUAAUACCCGUGUGACCCGUGUUUUAGAGCUAGAAAUAGCAAGUUAAAAUAAGGCUAGUCCGUUAUCAACUUGAAAAAGUGGCACCGAGUCGGUGCUUUUUUU
DNA 1: TCCGAATGACATGCGTCTCCGGTGTTGGAGCGACAGCCTTTACACCAACGGGTCACACGGGTATTATGCTAGC
DNA 2: GCTAGCATAATACCCGTGTGACCCGTTGGTGTAAAGGCTGTCGCTCCAACACCGGAGACGCATGTCATTCGGA
B1: the activity amounted to 28 fold repression.
